Experimental data reported in the supplement of paper PMC9112550, “Optimization of the antimicrobial peptide Bac7 by deep mutational scanning” (BMC Biology, 2022).

tested on: Escherichia coli TOP10; test: shrunken log2 fold change of peptide-encoding DNA abundance (4.5 h post-induction vs induction); higher = less antimicrobial activity (less host growth inhibition); details: time post-induction: 4.5 h; library: site-saturation at positions 5, 18, 19, 20
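Also: peptides expressed intracellularly from a pBAD plasmid library in pooled LB shake-flask culture, induced with 0.3% L-arabinose, DNA abundance read by NGS, three biological replicates, DESeq2 with apeglm shrinkage.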

Point of comparison: RRIRHRPPRLPRPRPRPFREPRP, “shrunken log2 fold change” value -0.0591. Against it:
- RRIRCRPPRLPRPRPRPMFYPRP — lower, -0.525
- RRIRIRPPRLPRPRPRPGAYPRP — lower, -0.33
- RRIRHRPPRLPRPRPRPASRPRP — within 0.2 log units, 0.103
- RRIRFRPPRLPRPRPRPVRWPRP — higher, 0.632
- RRIRTRPPRLPRPRPRPFVVPRP — lower, -0.266
- RRIRDRPPRLPRPRPRPPWDPRP — higher, 0.442
- RRIRWRPPRLPRPRPRPPYSPRP — lower, -0.262
- RRIRVRPPRLPRPRPRPWMWPRP — within 0.2 log units, 0.091
- RRIRRRPPRLPRPRPRPVQGPRP — higher, 0.223
- RRIRIRPPRLPRPRPRPEGPPRP — within 0.2 log units, -0.0796
- RRIRNRPPRLPRPRPRPLDTPRP — within 0.2 log units, -0.0954
- RRIRKRPPRLPRPRPRPSLQPRP — higher, 0.447
- RRIRVRPPRLPRPRPRPCDGPRP — within 0.2 log units, 0.0303
- RRIRFRPPRLPRPRPRPQEGPRP — within 0.2 log units, -0.00638
- RRIRERPPRLPRPRPRPLNSPRP — lower, -0.432
- RRIRPRPPRLPRPRPRPEVEPRP — within 0.2 log units, -0.00972
- RRIRMRPPRLPRPRPRPTTRPRP — higher, 0.832
- RRIRARPPRLPRPRPRPEYYPRP — within 0.2 log units, -0.059
- RRIRGRPPRLPRPRPRPTLTPRP — higher, 1.1
- RRIRNRPPRLPRPRPRPKCHPRP — within 0.2 log units, 0.0244
- RRIRCRPPRLPRPRPRPGSGPRP — higher, 0.496
- RRIRIRPPRLPRPRPRPGWWPRP — higher, 0.405
- RRIRGRPPRLPRPRPRPMRIPRP — higher, 2.34
- RRIRKRPPRLPRPRPRPYITPRP — lower, -0.548
- RRIRRRPPRLPRPRPRPIFVPRP — within 0.2 log units, 0.0119
- RRIRIRPPRLPRPRPRPDCMPRP — within 0.2 log units, -0.106
- RRIRIRPPRLPRPRPRPFRWPRP — within 0.2 log units, -0.00968
- RRIRYRPPRLPRPRPRPYWIPRP — within 0.2 log units, -0.222
- RRIRKRPPRLPRPRPRPSWFPRP — within 0.2 log units, -0.168
- RRIRTRPPRLPRPRPRPWVNPRP — within 0.2 log units, -0.208
- RRIRPRPPRLPRPRPRPAPAPRP — higher, 0.425
- RRIRMRPPRLPRPRPRPDFPPRP — within 0.2 log units, -0.0976
- RRIRARPPRLPRPRPRPWCQPRP — within 0.2 log units, -0.031
- RRIRQRPPRLPRPRPRPPTQPRP — within 0.2 log units, 0.0976
- RRIRVRPPRLPRPRPRPLANPRP — within 0.2 log units, -0.0581
- RRIRMRPPRLPRPRPRPIPHPRP — higher, 0.246
- RRIRWRPPRLPRPRPRPLWTPRP — within 0.2 log units, 0.0621
- RRIRYRPPRLPRPRPRPIMNPRP — within 0.2 log units, -0.123
- RRIRTRPPRLPRPRPRPKFTPRP — within 0.2 log units, -0.0912
- RRIRPRPPRLPRPRPRPMGFPRP — within 0.2 log units, -0.0125
- RRIRIRPPRLPRPRPRPPNGPRP — lower, -0.291
- RRIRPRPPRLPRPRPRPPDWPRP — higher, 0.577
- RRIRWRPPRLPRPRPRPFMWPRP — within 0.2 log units, -0.0278
- RRIRYRPPRLPRPRPRPNQIPRP — within 0.2 log units, -0.0468
- RRIRARPPRLPRPRPRPMKPPRP — within 0.2 log units, 0.101
- RRIRERPPRLPRPRPRPPTIPRP — within 0.2 log units, -0.0452
- RRIRSRPPRLPRPRPRPQPAPRP — within 0.2 log units, 0.0373
- RRIRYRPPRLPRPRPRPQAAPRP — within 0.2 log units, -0.195
- RRIRERPPRLPRPRPRPNCPPRP — lower, -0.409
- RRIRARPPRLPRPRPRPWIVPRP — within 0.2 log units, -0.0598
- RRIRTRPPRLPRPRPRPKDRPRP — within 0.2 log units, -0.196
- RRIRERPPRLPRPRPRPKIQPRP — lower, -0.259
- RRIRVRPPRLPRPRPRPVEMPRP — within 0.2 log units, -0.0393
- RRIRTRPPRLPRPRPRPHQHPRP — lower, -0.415
- RRIRQRPPRLPRPRPRPETTPRP — within 0.2 log units, 0.0178
- RRIRRRPPRLPRPRPRPDIIPRP — within 0.2 log units, -0.135
- RRIRPRPPRLPRPRPRPGNRPRP — within 0.2 log units, -0.0146
- RRIRSRPPRLPRPRPRPGCPPRP — higher, 0.18
- RRIRFRPPRLPRPRPRPQHRPRP — within 0.2 log units, -0.0907
- RRIRERPPRLPRPRPRPCNIPRP — within 0.2 log units, -0.0405
- RRIRNRPPRLPRPRPRPSPCPRP — lower, -0.36
- RRIRQRPPRLPRPRPRPRYDPRP — within 0.2 log units, -0.0523
- RRIRSRPPRLPRPRPRPMQYPRP — lower, -0.289
- RRIRIRPPRLPRPRPRPGPRPRP — higher, 0.358
- RRIRYRPPRLPRPRPRPRTEPRP — within 0.2 log units, -0.188
- RRIRSRPPRLPRPRPRPCMWPRP — within 0.2 log units, 0.0267
- RRIRHRPPRLPRPRPRPYLNPRP — lower, -1.2
- RRIRPRPPRLPRPRPRPDFPPRP — within 0.2 log units, -0.0174
- RRIRVRPPRLPRPRPRPFSAPRP — within 0.2 log units, -0.132
- RRIRARPPRLPRPRPRPMAPPRP — within 0.2 log units, 0.0991
- RRIRGRPPRLPRPRPRPVMNPRP — higher, 0.434
- RRIRKRPPRLPRPRPRPESLPRP — within 0.2 log units, -0.024
- RRIRYRPPRLPRPRPRPMFEPRP — lower, -0.315
- RRIRQRPPRLPRPRPRPYCKPRP — within 0.2 log units, -0.257
